# Assay results reported in patent US20210079398A1.
# Legend:
# [1] = target: Spot-Tag peptide-oligonucleotide conjugate (Spot-Tag.O1); assay: BCS binding assay on a sequencing chip (Cycle 1), NGS count of the nanobody barcode on foundation Spot-Tag.O1_BCS4_Fd31
# [2] = target: Bradykinin peptide-oligonucleotide conjugate (Brady.O1); assay: BCS binding assay on a sequencing chip (Cycle 1), NGS count of the nanobody barcode on foundation Brady.O1_BCS4_Fd14 (non-specific peptide control)
# [3] = target: Bradykinin peptide-oligonucleotide conjugate (Brady.O1); assay: BCS binding assay on a sequencing chip (Cycle 1), NGS count of the nanobody barcode on foundation Brady.O1_BCS4_Fd12 (non-specific peptide control)
# [4] = target: Spot-Tag peptide-oligonucleotide conjugate (Spot-Tag.O1); assay: BCS binding assay on a sequencing chip (Cycle 1), NGS count of the nanobody barcode on foundation Spot-Tag.O1_BCS4_Fd19
# [5] = target: Spot-Tag peptide-oligonucleotide conjugate (Spot-Tag.O1); assay: BCS binding assay on a sequencing chip (Cycle 1), NGS count of the nanobody barcode on foundation Spot-Tag.O1_BCS4_Fd27
# [6] = target: Spot-Tag peptide-oligonucleotide conjugate (Spot-Tag.O1); assay: BCS binding assay on a sequencing chip (Cycle 1), NGS count of the nanobody barcode on foundation Spot-Tag.O1_BCS4_Fd20
# [7] = target: Spot-Tag peptide-oligonucleotide conjugate (Spot-Tag.O1); assay: BCS binding assay on a sequencing chip (Cycle 1), NGS count of the nanobody barcode on foundation Spot-Tag.O1_BCS4_Fd28
# [8] = target: Bradykinin peptide-oligonucleotide conjugate (Brady.O1); assay: BCS binding assay on a sequencing chip (Cycle 1), NGS count of the nanobody barcode on foundation Brady.O1_BCS4_Fd13 (non-specific peptide control)
# [9] = target: Spot-Tag peptide-oligonucleotide conjugate (Spot-Tag.O1); assay: BCS binding assay on a sequencing chip (Cycle 1), NGS count of the nanobody barcode on foundation Spot-Tag.O1_BCS4_Fd29
substance,measurement,setting,value
Spot-tag nanobody-oligo conjugate (VHH),sequencing counts of binder barcode ligated to target foundation,[1],6160 counts
same,sequencing counts of binder barcode ligated to target foundation,[2],587 counts
same,sequencing counts of binder barcode ligated to target foundation,[3],40 counts
same,sequencing counts of binder barcode ligated to target foundation,[4],6900 counts
same,sequencing counts of binder barcode ligated to target foundation,[5],3380 counts
same,sequencing counts of binder barcode ligated to target foundation,[6],9650 counts
same,sequencing counts of binder barcode ligated to target foundation,[7],4880 counts
same,sequencing counts of binder barcode ligated to target foundation,[8],1620 counts
same,sequencing counts of binder barcode ligated to target foundation,[9],10600 counts
